According to IntAct's records for PubMed 31515488:

B1: Paraneoplastic antigen-like protein 5 (Homo sapiens), Q96PV4 (parent)
chain: MALTLLEDWCKGMDMDPRKALLIVGIPMECSEVEIQDTVKAGLQPLCAYRVLGRMFRREDNAKAVFIELADTVNYTTLPSHIPGKGGSWEVVVKPRNPDDEFLSRLNYFLKDEGRSMTDVARALGCCSLPAESLDAEVMPQVRSPPLEPPKESMWYRKLKVFSGTASPSPGEETFEDWLEQVTEIMPIWQVSEVEKRRRLLESLRGPALSIMRVLQANNDSITVEQCLDALKQIFGDKEDFRASQFRFLQTSPKIGEKVSTFLLRLEPLLQKAVHKSPLSVRSTDMIRLKHLLARVAMTPALRGKLELLDQRGCPPNFLELMKLIRDEEEWENTEAVMKNKEKPSGRGRGASGRQARAEASVSAPQATVQARSFSDSSPQTIQGGLPPLVKRRRLLGSESTRGEDHGQATYPKAENQTPGREGPQAAGEELGNEAGAGAMSHPKPWET
B2: Ligand of Numb protein X 2 (Homo sapiens), Q8N448 (parent)
chain: MGTTSDEMVSVEQTSSSSLNPLCFECGQQHWTRENHLYNYQNEVDDDLVCHICLQPLLQPLDTPCGHTFCYKCLRNFLQEKDFCPLDRKRLHFKLCKKSSILVHKLLDKLLVLCPFSSVCKDVMQRCDLEAHLKNRCPGASHRRVALERRKTSRTQAEIENENGPTLLDPAGTLSPEADCLGTGAVPVERHLTSASLSTWSEEPGLDNPAFEESAGADTTQQPLSLPEGEITTIEIHRSNPYIQLGISIVGGNETPLINIVIQEVYRDGVIARDGRLLAGDQILQVNNYNISNVSHNYARAVLSQPCNTLHLTVLRERRFGNRAHNHSDSNSPREEIFQVALHKRDSGEQLGIKLVRRTDEPGVFILDLLEGGLAAQDGRLSSNDRVLAINGHDLKYGTPELAAQIIQASGERVNLTIARPGKPQPGNTIREAGNHSSSSQHHTPPPYYSRPSSHKDLTQCVTCQEKHITVKKEPHESLGMTVAGGRGSKSGELPIFVTSVPPHGCLARDGRIKRGDVLLNINGIDLTNLSHSEAVAMLKASAASPAVALKALEVQIVEEATQNAEEQPSTFSENEYDASWSPSWVMWLGLPSTLHSCHDIVLRRSYLGSWGFSIVGGYEENHTNQPFFIKTIVLGTPAYYDGRLKCGDMIVAVNGLSTVGMSHSALVPMLKEQRNKVTLTVICWPGSLV
partner: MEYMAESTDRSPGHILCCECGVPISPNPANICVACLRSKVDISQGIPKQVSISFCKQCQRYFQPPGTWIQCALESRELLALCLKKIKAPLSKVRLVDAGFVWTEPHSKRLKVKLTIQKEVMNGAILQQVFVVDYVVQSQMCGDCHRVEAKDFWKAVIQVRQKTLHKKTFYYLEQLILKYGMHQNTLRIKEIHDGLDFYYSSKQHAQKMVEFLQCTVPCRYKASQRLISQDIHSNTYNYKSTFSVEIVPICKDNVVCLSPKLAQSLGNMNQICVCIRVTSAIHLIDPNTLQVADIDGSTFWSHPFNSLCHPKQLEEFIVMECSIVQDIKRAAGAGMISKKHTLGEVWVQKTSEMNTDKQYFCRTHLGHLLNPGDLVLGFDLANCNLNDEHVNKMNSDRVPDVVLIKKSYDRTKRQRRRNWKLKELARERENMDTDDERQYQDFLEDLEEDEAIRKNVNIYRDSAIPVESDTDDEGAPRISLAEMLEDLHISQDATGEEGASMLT
B3: Microtubule-associated tumor suppressor candidate 2 (Homo sapiens), Q5JR59-3 (parent)
chain: MGHCCCKPYNCLQCLDKTNESALVKEKELSIELANIRDEVAFHTAKCEKLQKEKEELERRFEDEVKRLGWQQQAELQELEERLQLQFEAEMARLQEEHGDQLLSIRCQHQEQVEDLTASHDAALLEMENNHTVAITILQDDHDHKVQELMSTHELEKKELEENFEKLRLSLQDQVDTLTFQSQSLRDRARRFEEALRKNTEEQLEIALAPYQHLEEDMKSLKQVLEMKNQQIHEQEKKILELEKLAEKNIILEEKIQVLQQQNEDLKARIDQNTVVTRQLSEENANLQEYVEKETQEKKRLSRTNEELLWKLQTGDPTSPIKLSPTSPVYRGSSSGPSSPARVSTTPR
partner: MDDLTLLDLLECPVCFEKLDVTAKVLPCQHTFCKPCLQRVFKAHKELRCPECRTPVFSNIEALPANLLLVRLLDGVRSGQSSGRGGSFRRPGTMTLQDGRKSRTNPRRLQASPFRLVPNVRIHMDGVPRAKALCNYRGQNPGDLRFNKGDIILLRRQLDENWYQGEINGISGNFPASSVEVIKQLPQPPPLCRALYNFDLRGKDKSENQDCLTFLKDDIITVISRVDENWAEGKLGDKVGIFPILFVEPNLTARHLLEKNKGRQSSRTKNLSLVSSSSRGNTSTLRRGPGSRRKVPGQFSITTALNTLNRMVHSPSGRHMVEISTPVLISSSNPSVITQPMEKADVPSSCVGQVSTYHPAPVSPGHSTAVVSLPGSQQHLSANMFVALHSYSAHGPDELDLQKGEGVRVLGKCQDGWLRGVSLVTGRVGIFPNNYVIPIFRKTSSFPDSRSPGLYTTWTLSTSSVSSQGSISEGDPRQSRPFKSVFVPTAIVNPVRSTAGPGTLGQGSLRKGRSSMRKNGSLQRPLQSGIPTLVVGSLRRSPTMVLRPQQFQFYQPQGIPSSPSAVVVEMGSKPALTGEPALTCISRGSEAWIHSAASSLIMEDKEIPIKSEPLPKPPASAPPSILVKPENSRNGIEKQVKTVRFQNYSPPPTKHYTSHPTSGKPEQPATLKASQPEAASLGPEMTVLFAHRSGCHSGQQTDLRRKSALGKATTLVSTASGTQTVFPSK
B4: Syntaxin-binding protein 4 (Homo sapiens), Q6ZWJ1 (parent)
chain: MNKNTSTVVSPSLLEKDPAFQMITIAKETGLGLKVLGGINRNEGPLVYIQEIIPGGDCYKDGRLKPGDQLVSVNKESMIGVSFEEAKSIITGAKLRLESAWEIAFIRQKSDNIQPENLSCTSLIEASGEYGPQASTLSLFSSPPEILIPKTSSTPKTNNDILSSCEIKTGYNKTVQIPITSENSTVGLSNTDVASAWTENYGLQEKISLNPSVRFKAEKLEMALNYLGIQPTKEQHQALRQQVQADSKGTVSFGDFVQVARNLFCLQLDEVNVGAHEISNILDSQLLPCDSSEADEMERLKCERDDALKEVNTLKEKLLESDKQRKQLTEELQNVKQEAKAVVEETRALRSRIHLAEAAQRQAHGMEMDYEEVIRLLEAKITELKAQLADYSDQNKESVQDLKKRIMVLDCQLRKSEMARKTFEASTEKLLHFVEAIQEVFSDNSTPLSNLSERRAVLASQTSLTPLGRNGRSIPATLALESKELVKSVRALLDMDCLPYGWEEAYTADGIKYFINHVTQTTSWIHPVMSVLNLSRSEENEEDCSRELPNQKS
partner: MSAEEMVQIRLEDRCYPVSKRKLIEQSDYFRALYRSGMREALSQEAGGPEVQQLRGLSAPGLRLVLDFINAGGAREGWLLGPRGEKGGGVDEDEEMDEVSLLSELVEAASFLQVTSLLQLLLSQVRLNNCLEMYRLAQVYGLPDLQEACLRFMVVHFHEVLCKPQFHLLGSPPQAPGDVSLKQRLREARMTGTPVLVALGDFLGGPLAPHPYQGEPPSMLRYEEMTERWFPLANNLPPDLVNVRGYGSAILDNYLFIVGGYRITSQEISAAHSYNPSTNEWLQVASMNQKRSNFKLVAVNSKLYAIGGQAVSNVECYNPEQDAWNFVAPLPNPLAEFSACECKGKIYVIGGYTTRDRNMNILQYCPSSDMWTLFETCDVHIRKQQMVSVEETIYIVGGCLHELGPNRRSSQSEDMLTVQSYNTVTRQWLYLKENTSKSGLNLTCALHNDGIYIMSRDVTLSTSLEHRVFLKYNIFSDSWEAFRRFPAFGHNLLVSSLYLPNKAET
B5: MAGUK p55 subfamily member 2 (Homo sapiens), Q14168-2 (parent)
chain: MPVAATNSETAMQQVLDNLGSLPSATGAAELDLIFLRGIMESPIVRSLAKAHERLEETKLEAVRDNNLELVQEILRDLAHVAEQSSTAAELAHILQEPHFQSLLETHDSVASKTYETPPPSPGLDPTFSNQPVPPDAVRMVGIRKTAGEHLGVTFRVEGGELVIARILHGGMVAQQGLLHVGDIIKEVNGQPVGSDPRALQELLRNASGSVILKILPSYQEPHLPRQVFVKCHFDYDPARDSLIPCKEAGLRFNAGDLLQIVNQDDANWWQACHVEGGSAGLIPSQLLEEKRKAFVKRDLELTPNSGTLCGSLSGKKKKRMMYLTTKNAEFDRHELLIYEEVARMPPFRRKTLVLIGAQGVGRRSLKNKLIMWDPDRYGTTVPYTSRRPKDSEREGQGYSFVSRGEMEADVRAGRYLEHGEYEGNLYGTRIDSIRGVVAAGKVCVLDVNPQAVKVLRTAEFVPYVVFIEAPDFETLRAMNRAALESGISTKQLTEADLRRTVEESSRIQRGYGHYFDLCLVNSNLERTFRELQTAMEKLRTEPQWVPVSWVY
partner: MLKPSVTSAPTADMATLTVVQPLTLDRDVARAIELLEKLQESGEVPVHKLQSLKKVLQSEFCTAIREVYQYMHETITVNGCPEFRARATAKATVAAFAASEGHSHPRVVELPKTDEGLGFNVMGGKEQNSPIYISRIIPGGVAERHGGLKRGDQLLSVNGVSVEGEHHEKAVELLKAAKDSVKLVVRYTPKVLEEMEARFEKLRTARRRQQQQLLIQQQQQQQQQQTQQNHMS
B6: TBC1 domain family member 7 (Homo sapiens), Q9P0N9 (parent)
chain: MTEDSQRNFRSVYYEKVGFRGVEEKKSLEILLKDDRLDTEKLCTFSQRFPLPSMYRALVWKVLLGILPPHHESHAKVMMYRKEQYLDVLHALKVVRFVSDATPQAEVYLRMYQLESGKLPRSPSFPLEPDDEVFLAIAKAMEEMVEDSVDCYWITRRFVNQLNTKYRDSLPQLPKAFEQYLNLEDGRLLTHLRMCSAAPKLPYDLWFKRCFAGCLPESSLQRVWDKVVSGSCKILVFVAVEILLTFKIKVMALNSAEKITKFLENIPQDSSDAIVSKAIDLWHKHCGTPVHSS
partner: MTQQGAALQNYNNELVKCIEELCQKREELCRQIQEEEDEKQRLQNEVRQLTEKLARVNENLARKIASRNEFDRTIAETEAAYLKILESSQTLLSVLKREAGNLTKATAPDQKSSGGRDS
B7: Nuclear protein AMMECR1 (Homo sapiens), Q9Y4X0 (parent)
chain: MAAGCCGVKKQKLSSSPPSGSGGGGGASSSSHCSGESQCRAGELGLGGAGTRLNGLGGLTGGGSGSGCTLSPPQGCGGGGGGIALSPPPSCGVGTLLSTPAAATSSSPSSSSAASSSSPGSRKMVVSAEMCCFCFDVLYCHLYGYQQPRTPRFTNEPYPLFVTWKIGRDKRLRGCIGTFSAMNLHSGLREYTLTSALKDSRFPPMTRDELPRLFCSVSLLTNFEDVCDYLDWEVGVHGIRIEFINEKGSKRTATYLPEVAKEQGWDHIQTIDSLLRKGGYKAPITNEFRKTIKLTRYRSEKMTLSYAEYLAHRQHHHFQNGIGHPLPPYNHYS
partner: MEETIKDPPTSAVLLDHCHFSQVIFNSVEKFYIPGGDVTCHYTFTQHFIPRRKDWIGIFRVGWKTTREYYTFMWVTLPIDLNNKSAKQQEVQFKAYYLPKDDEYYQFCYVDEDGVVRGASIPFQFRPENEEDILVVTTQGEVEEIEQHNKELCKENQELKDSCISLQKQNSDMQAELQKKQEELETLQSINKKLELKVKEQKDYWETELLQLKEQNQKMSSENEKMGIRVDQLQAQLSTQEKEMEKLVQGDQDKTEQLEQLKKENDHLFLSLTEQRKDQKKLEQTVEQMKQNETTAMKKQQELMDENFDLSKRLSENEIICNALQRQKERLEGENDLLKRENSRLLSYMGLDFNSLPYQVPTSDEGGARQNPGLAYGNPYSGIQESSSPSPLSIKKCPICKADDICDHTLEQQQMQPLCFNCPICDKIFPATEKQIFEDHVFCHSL

Variants of: B1
Details: with arpc4_human ARPC4, P59998

effect of a mutation on the interaction | Variant
with no effect | V274M

Variants of: B1
Details: with zfy26_human ZFYVE26, Q68DK2
Sequence of zfy26_human ZFYVE26, Q68DK2 (Q68DK2 whole entry): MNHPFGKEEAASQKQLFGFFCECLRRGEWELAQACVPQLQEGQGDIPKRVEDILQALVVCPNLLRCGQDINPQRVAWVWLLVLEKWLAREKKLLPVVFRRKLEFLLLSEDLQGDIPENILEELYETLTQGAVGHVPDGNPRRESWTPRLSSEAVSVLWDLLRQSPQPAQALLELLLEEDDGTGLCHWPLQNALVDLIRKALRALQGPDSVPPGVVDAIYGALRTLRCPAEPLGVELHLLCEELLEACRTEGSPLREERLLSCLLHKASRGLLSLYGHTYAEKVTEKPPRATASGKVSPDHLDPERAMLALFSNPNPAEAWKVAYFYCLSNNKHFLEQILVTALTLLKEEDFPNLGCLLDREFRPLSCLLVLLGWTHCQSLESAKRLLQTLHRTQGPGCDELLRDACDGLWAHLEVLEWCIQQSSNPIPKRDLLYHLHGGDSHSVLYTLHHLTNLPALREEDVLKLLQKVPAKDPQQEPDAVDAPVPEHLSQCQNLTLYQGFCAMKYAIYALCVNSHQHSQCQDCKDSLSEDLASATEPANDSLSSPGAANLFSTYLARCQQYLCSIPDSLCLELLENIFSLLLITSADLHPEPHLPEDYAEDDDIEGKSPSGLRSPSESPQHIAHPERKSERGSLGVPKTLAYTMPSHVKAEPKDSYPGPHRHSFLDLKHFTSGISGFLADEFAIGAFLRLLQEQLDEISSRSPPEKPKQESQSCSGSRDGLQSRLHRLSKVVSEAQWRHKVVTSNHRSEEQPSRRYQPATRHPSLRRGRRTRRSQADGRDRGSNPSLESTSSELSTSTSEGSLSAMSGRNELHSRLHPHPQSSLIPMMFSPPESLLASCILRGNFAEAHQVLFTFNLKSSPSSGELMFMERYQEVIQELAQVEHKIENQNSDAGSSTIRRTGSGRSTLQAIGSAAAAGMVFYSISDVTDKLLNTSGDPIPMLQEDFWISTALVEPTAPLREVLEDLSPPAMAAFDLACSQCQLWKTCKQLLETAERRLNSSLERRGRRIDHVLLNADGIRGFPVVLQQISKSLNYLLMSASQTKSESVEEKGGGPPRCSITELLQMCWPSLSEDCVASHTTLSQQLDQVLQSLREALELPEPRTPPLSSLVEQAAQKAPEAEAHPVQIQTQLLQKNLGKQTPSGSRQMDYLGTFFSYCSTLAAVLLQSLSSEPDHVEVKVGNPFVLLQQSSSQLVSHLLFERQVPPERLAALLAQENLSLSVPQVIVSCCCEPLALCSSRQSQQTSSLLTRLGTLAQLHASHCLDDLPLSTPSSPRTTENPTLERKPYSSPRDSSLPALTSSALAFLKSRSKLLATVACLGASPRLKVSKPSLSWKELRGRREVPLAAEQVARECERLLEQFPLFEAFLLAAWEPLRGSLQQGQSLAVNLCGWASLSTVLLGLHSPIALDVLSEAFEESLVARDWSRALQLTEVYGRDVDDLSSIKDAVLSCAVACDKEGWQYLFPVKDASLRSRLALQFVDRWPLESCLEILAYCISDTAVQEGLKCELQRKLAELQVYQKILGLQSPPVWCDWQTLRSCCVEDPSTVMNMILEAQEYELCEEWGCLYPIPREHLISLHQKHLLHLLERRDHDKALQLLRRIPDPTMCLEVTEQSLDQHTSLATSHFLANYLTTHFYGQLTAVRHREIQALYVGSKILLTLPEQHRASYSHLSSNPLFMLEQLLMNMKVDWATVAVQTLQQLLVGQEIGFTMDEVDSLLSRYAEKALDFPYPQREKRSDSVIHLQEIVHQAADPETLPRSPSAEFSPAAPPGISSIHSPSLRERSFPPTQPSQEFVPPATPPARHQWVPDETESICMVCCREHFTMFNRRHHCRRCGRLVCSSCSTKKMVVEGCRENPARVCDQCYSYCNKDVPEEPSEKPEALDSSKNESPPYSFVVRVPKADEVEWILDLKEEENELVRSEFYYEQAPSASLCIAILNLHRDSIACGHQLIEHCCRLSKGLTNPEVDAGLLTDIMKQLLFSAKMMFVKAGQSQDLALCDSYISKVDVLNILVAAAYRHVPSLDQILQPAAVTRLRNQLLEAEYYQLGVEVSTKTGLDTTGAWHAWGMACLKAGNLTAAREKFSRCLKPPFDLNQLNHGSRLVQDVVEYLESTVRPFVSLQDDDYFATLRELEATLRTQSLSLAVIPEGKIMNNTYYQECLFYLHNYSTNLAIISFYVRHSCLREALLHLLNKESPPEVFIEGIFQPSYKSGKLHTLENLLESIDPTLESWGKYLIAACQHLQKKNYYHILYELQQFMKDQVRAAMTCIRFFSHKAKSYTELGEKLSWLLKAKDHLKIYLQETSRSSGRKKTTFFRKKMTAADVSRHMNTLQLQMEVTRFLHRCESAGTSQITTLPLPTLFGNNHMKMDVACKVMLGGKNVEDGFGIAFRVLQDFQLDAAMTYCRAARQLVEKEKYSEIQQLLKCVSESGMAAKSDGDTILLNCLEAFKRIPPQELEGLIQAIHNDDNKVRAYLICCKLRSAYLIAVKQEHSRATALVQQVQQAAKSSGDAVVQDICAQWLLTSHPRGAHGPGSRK

effect of a mutation on the interaction | Variant
with no effect | V274M

Variants of: B1
Details: with ccnc_human CCNC

effect of a mutation on the interaction | Variant
with no effect | V274M

Variants of: B1
Details: with aapk1_human PRKAA1, Q13131
Sequence of aapk1_human PRKAA1, Q13131 (Q13131 whole entry, looked up): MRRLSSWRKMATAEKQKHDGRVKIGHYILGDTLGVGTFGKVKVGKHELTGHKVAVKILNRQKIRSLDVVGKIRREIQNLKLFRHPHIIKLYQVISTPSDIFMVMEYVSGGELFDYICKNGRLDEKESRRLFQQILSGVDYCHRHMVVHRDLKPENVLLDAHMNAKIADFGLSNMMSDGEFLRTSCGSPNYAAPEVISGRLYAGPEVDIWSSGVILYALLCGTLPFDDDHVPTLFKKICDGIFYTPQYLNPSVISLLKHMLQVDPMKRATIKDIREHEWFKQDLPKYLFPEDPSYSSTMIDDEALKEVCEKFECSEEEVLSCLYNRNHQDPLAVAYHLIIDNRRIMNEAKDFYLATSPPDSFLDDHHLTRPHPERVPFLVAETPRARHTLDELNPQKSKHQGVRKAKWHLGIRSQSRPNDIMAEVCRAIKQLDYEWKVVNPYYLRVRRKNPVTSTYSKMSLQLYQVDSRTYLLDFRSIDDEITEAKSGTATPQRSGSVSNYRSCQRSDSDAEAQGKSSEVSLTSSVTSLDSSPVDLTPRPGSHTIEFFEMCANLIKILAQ

effect of a mutation on the interaction | Variant
with no effect | V274M

Variants of: B2
Details: with nmd3_human NMD3, Q96D46

effect of a mutation on the interaction | Variant
with no effect | T183I
with no effect | V145I

Variants of: B3
Details: with sh3r2_human SH3RF2, Q8TEC5

effect of a mutation on the interaction | Variant
with no effect | A89V

Variants of: B4
Details: with klh42_human KLHL42, Q9P2K6

effect of a mutation on the interaction | Variant
with no effect | C120R

Variants of: B5
Details: with lin7a_human LIN7A

effect of a mutation on the interaction | Variant
with no effect | R500W

Variants of: B6
Details: with ssna1_human SSNA1, O43805

effect of a mutation on the interaction | Variant
disrupting interaction strength | L67W

Variants of: B7
Details: with caco2_human CALCOCO2, Q13137

effect of a mutation on the interaction | Variant
disrupting interaction strength | R207G
